Laboratory results from patent publication US20090123452A1 (TORREY PINES INSTITUTE FOR MOLECULAR STUDIES AND CATALYST …, published 2009).

Key:
[1] = biological target: T1, u-PA/IIb (purified two-chain enzyme) (human, UniProt P00749 21-431); experiment: inhibition kinetics, 2nd order rate constant
T1 construct: F30V/K82E (chymotrypsin numbering); Full-length u-PA from COS-1 cells, made two-chain with plasmin-sepharose; also called u-PA/IIb (30, 82)
Description: (§1) The indirect chromogenic assay as described in Part D above was used to determine the residual enzyme activity remaining as a function of time.
(§2) The rate constants for inhibition of wild-type or mutant u-PA by PAI-1 were under pseudo-first order conditions for an excess of PAI-1 over u-PA as described previously (see e.g., Holmes et al. (1987) Biochemistry, 26: 5133-5140; Beatty et al. (1980) J. Biol. Chem., 255:3931-3934; Madison et al. (1990) PNAS, 87: 3530-3533; Madison et al. (1993) Methods Enzymol., 223:249-271). […] Following incubation, the mixtures were diluted and the residual enzymatic activity was determined in a standard chromogenic assay as set forth in D above. Data were analyzed by plotting In (residual activity/initial activity) versus time and determining the slope of the resulting straight line. […] rate constants were then derived by dividing the slope by the concentration of the inhibitor in the reaction.
(§3) Following preincubation, the mixtures were quenched with an excess of neutralizing anti-PAI antibodies and residual enzymatic activity was measured in the indirect chromogenic assay. The indirect, chromogenic assays were compared with control reactions containing no PAI-1 or to which PAI-1 was added after preincubation and addition of anti-PAI-1 antibody, plasminogen and Spectrozyme PL to the reaction mixture.

[2] = biological target: T2, u-PA/IIIa (purified two-chain enzyme) (human, UniProt P00749 21-431); experiment: inhibition kinetics, 2nd order rate constant
T2 construct: F30V/K82E/V159A (chymotrypsin numbering); Full-length u-PA from COS-1 cells, made two-chain with plasmin-sepharose; also called u-PA/IIIa (30, 82, 159)
Description: as §1, §2, §3

[3] = biological target: T3, u-PA/IIIb (purified two-chain enzyme) (human, UniProt P00749 21-431); experiment: inhibition kinetics, 2nd order rate constant
T3 construct: F30V/K82E/T39A/V159A (chymotrypsin numbering); Full-length u-PA from COS-1 cells, made two-chain with plasmin-sepharose; also called u-PA/IIIb (30, 39, 82, 159)
Description: as §1, §2, §3

[4] = biological target: T4, u-PA/IVa (purified two-chain enzyme) (human, UniProt P00749 21-431); experiment: inhibition kinetics, 2nd order rate constant
T4 construct: F30V/K82E/V159A/E80G/I89V/K187E (chymotrypsin numbering); Full-length u-PA from COS-1 cells, made two-chain with plasmin-sepharose; also called u-PA/IVa (30, 80, 82, 89, 159, 187)
Description: as §1, §2, §3

[5] = biological target: T5, u-PA/IVb (purified two-chain enzyme) (human, UniProt P00749 21-431); experiment: inhibition kinetics, 2nd order rate constant
T5 construct: F30V/K82E/V159A/E80G/E84K/I89V/K187E (chymotrypsin numbering); Full-length u-PA from COS-1 cells, made two-chain with plasmin-sepharose; also called u-PA/IVb (30, 80, 82, 84, 89, 159, 187)
Description: as §1, §2, §3

[6] = biological target: T6, u-PA/Ic (purified two-chain enzyme) (human, UniProt P00749 21-431); experiment: inhibition kinetics, 2nd order rate constant
T6 construct: F30V (chymotrypsin numbering); Full-length u-PA from COS-1 cells, made two-chain with plasmin-sepharose; also called u-PA/Ic (30)
Description: as §1, §2, §3

[7] = biological target: u-PA/Ia (phage) (human, UniProt P00749 179-431); experiment: phage display selection: stable complex with His-tagged PAI-1/69 bait captured on Cu-sepharose; increased sensitivity against PAI-1/69
Experimental: (§4) In brief, 5 μl (˜2×10¹² to ˜1×10¹³) u-PA phage, containing an equal representation of u-PA phage from all three u-PA phage libraries (0.2, 0.5 and 0.9% mutagenesis frequency), was mixed with 5 μl bait substrate (from 0.1 to 1.0 μM PAI-1/RRAR or PAI-1/69) and 10 μl 10× indirect buffer pH 7.4 (0.5 M Tris, 1.0 M NaCl, 10 mM EDTA, 0.1% Tween 80) in a total volume of 100 μl (i.e. reaction contained 80 μl H₂O).
(§5) The u-PA phage-PAI-1 inhibitor complexes were captured using CuSO₄ activated sepharose. Pre-activation of the chelating sepharose (200 μl; Pharmacia) was accomplished by treatment with CuSO₄ (100 mM). The CuSO₄ activated sepharose was blocked with 0.5% BSA in PBS buffer for 1 hour at room temperature. 100 μl of BSA blocked sepharose beads was added to 100 μl of the above panning mixture reaction in the presence of 800 μl of binding buffer (0.5 M NaCl, 20 mM Tris, 20 mM immidozole, pH7.4) to capture the His-tagged PAI-1 inhibitor-u-PA phage complexes. The incubation was continued for another 1 hour at room temperature. Next, the panning mixture was centrifuged for 1 min at 2000 rpm and the sepharose beads containing bound u-PA phage-PAI-1 inhibitor complexes were washed with 1 ml of binding buffer to remove unbound phages. The washing step was repeated 5-10 times and the beads containing bound complexes were transferred to new tubes after each wash to avoid any potential “carry over” of non-specific phages.

[8] = biological target: u-PA/Ib (phage) (human, UniProt P00749 179-431); experiment: as above
Experimental: as §4, §5

[9] = biological target: u-PA/Ic (phage) (human, UniProt P00749 179-431); experiment: as above
Experimental: as §4, §5

[10] = biological target: u-PA/Id (phage) (human, UniProt P00749 179-431); experiment: as above
Experimental: as §4, §5

[11] = biological target: u-PA/IIa (phage) (human, UniProt P00749 179-431); experiment: as above
Experimental: as §4, §5

[12] = biological target: u-PA/IIb (phage) (human, UniProt P00749 179-431); experiment: as above
Experimental: as §4, §5

[13] = biological target: u-PA/IIc (phage) (human, UniProt P00749 179-431); experiment: as above
Experimental: as §4, §5

[14] = biological target: u-PA/IIIa (phage) (human, UniProt P00749 179-431); experiment: as above
Experimental: as §4, §5

[15] = biological target: u-PA/IIIb (phage) (human, UniProt P00749 179-431); experiment: as above
Experimental: as §4, §5

[16] = biological target: u-PA/IIIc (phage) (human, UniProt P00749 179-431); experiment: as above
Experimental: as §4, §5

[17] = biological target: u-PA/IIId (phage) (human, UniProt P00749 179-431); experiment: as above
Experimental: as §4, §5

[18] = biological target: u-PA/IVa (phage) (human, UniProt P00749 179-431); experiment: as above
Experimental: as §4, §5

[19] = biological target: u-PA/IVb (phage) (human, UniProt P00749 179-431); experiment: as above
Experimental: as §4, §5

- binding result [1]: binds
- binding result [2]: binds
- binding result [3]: binds
- binding result [4]: binds
- binding result [5]: binds
- binding result [6]: binds
- binding result [7]: binds
- binding result [8]: binds
- binding result [9]: binds
- binding result [10]: binds
- binding result [11]: binds
- binding result [12]: binds
- binding result [13]: binds
- binding result [14]: binds
- binding result [15]: binds
- binding result [16]: binds
- binding result [17]: binds
- binding result [18]: binds
- binding result [19]: binds
B1: mutant PAI-1/69 inhibitor (other)
chain: VHHPPSYVAHLASDFGVRVFQQVAQASKDRNVVFSPYGVASVLAMLQLTTGGETQQQIQAAMGFKIDDKGMAPALRHLYKELMGPWNKDEISTTDAIFVQRDLKLVQGFMPHFFRLFRSTVKQVDFSEVERARFIINDWVKTHTKGMISNLLGKGAVDQLTRLVLVNALYFNGQWKTPFPDSSTHRRLFHKSDGSTVSVPMMAQTNKFNYTEFTTPDGHYYDILELPYHGDTLSMFIAAPYEKEVPLSALTNILSAQLISHWKGNMTRLPRLLVLPKFSLETEVDLRKPLENLGMTDMFRQFQADFTSLSDQEPLHVAQALQKVKIEVNESGTVASSSTAVIPFGRSAPEEIIMDRPFLFVVRHNPTGTVLFMGQVMEP
notes: not shown: N-terminal poly histidine residues from the pPAIST7HS vector
